Test results from publication PMC3735781 (Journal of the American Chemical Society, 2013).

Key:
Assay in all cases: HPLC steady-state kinetics, amide hydrolysis at lactyl moiety
[1] = target: T1, AmpDh3 (Pseudomonas aeruginosa, UniProt Q9I5D1); assay type: biochemical; conditions: 100 μM ZnCl2
T1 sequence (Q9I5D1 1-255): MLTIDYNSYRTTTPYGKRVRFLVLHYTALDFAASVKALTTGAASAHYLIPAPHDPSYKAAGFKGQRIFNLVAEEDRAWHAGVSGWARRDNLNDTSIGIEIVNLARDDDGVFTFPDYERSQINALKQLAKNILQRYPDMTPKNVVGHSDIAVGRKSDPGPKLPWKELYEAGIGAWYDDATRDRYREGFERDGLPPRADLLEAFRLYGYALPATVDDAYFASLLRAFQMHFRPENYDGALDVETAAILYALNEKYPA

[2] = target: T2, AmpDh2 (Pseudomonas aeruginosa, UniProt Q9HT86); assay type: biochemical; conditions: 100 μM ZnCl2
T2 sequence (Q9HT86 18-259): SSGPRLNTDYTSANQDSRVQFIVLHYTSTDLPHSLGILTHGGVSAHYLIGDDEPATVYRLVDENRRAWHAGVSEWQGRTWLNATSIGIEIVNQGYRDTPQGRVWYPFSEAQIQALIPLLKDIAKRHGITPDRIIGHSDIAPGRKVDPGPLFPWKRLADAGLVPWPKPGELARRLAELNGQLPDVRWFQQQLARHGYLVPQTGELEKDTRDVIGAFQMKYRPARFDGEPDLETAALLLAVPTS

[3] = tested on: CC(=O)N[C@H]1[C@@H]2OC[C@@H](O2)[C@@H](O)[C@@H]1O[C@H](C)C(=O)N[C@@H](C)C(=O)N[C@H](CCC(=O)N[C@@H](CCC[C@@H](N)C(=O)O)C(=O)N[C@H](C)C(=O)O)C(=O)O; assay type: biochemical, Pseudomonas aeruginosa; conditions: 25 °C (Figure 2 reaction)
[4] = substrate: CC(=O)N[C@H]1[C@@H]2OC[C@@H](O2)[C@@H](O)[C@@H]1O[C@H](C)C(=O)N[C@@H](C)C(=O)N[C@H](CCC(=O)N[C@@H](CCC[C@@H](N)C(=O)O)C(=O)N[C@H](C)C(=O)O)C(=O)O; assay type: biochemical, Pseudomonas aeruginosa; conditions: 100 μM ZnCl2

muramyl tetrapeptide 8 [compound 8] was tested, and the Km [1] was 1400 ± 200 µM and the Km [2] was 1800 ± 300 µM.

Molecule AmpD (Pseudomonas aeruginosa PAO1) has a Km [3] of 1200 ± 300 µM, a kcat [3] of 39.8 ± 3.1 s⁻¹ and a kcat/Km [3] of 33200 ± 7500 M⁻¹ s⁻¹.

B1: AmpDh3 (Pseudomonas aeruginosa PAO1) (protein)
chain: MLTIDYNSYRTTTPYGKRVRFLVLHYTALDFAASVKALTTGAASAHYLIPAPHDPSYKAAGFKGQRIFNLVAEEDRAWHAGVSGWARRDNLNDTSIGIEIVNLARDDDGVFTFPDYERSQINALKQLAKNILQRYPDMTPKNVVGHSDIAVGRKSDPGPKLPWKELYEAGIGAWYDDATRDRYREGFERDGLPPRADLLEAFRLYGYALPATVDDAYFASLLRAFQMHFRPENYDGALDVETAAILYALNEKYPA
B1 gave a Km [4] of 4500 ± 600 µM, a kcat [4] of 70.6 ± 6.6 s⁻¹ and a kcat/Km [4] of 15700 ± 1900 M⁻¹ s⁻¹.
